B1: 24A1_mIgG1: recombinant mouse IgG1 antibody with 24A1 variable regions (antibody, V domains shown)
VH: EVQLVESGGGLVQPKGSLKLSCAASGFTFNVYDMHWVRQAPGEGLEWVARIRSKSSNYATNYADSVKDRFTISRDDSQSMLYLQMNNLQTEDTAIYYCVRDGSHYYYALDYWGQGTSVTVSS
VL: DIQMTQTTSSLSASLGDRVTISCRASQDINNYLNWYQQKLDGTVKLLIYYSSRLHSGVPSRFSGSGSGTDYSLTISNLEQEDIATYFCQQGKMFPWTFGGGTKLEIK

Columns and labels:
[1] = Test 7: in vivo ocular toxicity test, TB staining of eye sections; parameters: species or system Balb/c mice; conditions: eyes removed day 29, FIG. 17
Method: The ocular toxicity test was carried out using Balb/c mice. The mice intravenously received “20A77_mIgG1”, “24A1_mIgG1” or an isotype control antibody mIgG1 at a dose of 10 mg/kg at a frequency of twice a week. As a positive control of ocular toxicity, mice orally received a MerTK small molecule inhibitor UNC569 at a dose of 150 mg/kg for 10 days. At day 29 after the first administration, eyes were removed, fixed with a Karnovsky's fixative and then subjected to embedding in a resin, preparation of sections and toluidine blue staining (hereinafter also referred to as “TB staining”) carried out by Applied Medical Research Laboratory.

[2] = administration to mice; Non-Patent Document 3; cited from earlier work
[3] = tested on: mouse colon cancer cell line CT26; test: Test 5: combined administration with anti-PD-1 antibody in CT26 syngeneic tumor model; assay type: in vivo, Balb/c mice; conditions: 5 mg/kg plus anti-mouse PD-1 antibody 29F.1A12 0.3 mg/kg, twice a week until day 19; FIGS. 11 and 12
Method: (§1) CT26 cells (5×10^6 cells per mouse) were subcutaneously transplanted to Balb/c mice at the right flank. After 5 days of the tumor transplantation, the mice were divided into groups and an isotype control antibody mIgG2a and “20A77_mIgG2a” were respectively intraperitoneally administered at a dose of 10 mg/kg at a frequency of twice a week. After the administration, the tumor size was measured at a frequency of twice a week until day 19 after the tumor transplantation. The tumor size was calculated from the equation below with the minor axis and the major axis of the tumor measured using calipers:
On the basis of the procedures indicated below, anti-tumor effects of combined use of each of “20A77_mIgG1” and “24A1_mIgG1” and an anti-PD-1 antibody were evaluated. As “Test 3” above, a syngeneic tumor model using the mouse colon cancer cell line CT26 (ATCC) was used for the evaluation. Anti-PD-1 antibodies are known to have anti-tumor effects.
The administration groups received the antibodies indicated below at a frequency of twice a week. […]

[4] = tested on: mouse colon cancer cell line CT26; test: Test 4: efficacious dosage in CT26 syngeneic tumor model; assay type: in vivo, Balb/c mice; conditions: vs solvent control
Method: as §1
On the basis of the procedures indicated below, anti-tumor effects of “20A77_mIgG1” and “24A1_mIgG1” according to the dosage thereof were evaluated. As “Test 3” above, a syngeneic tumor model using the mouse colon cancer cell line CT26 (ATCC) was used for the evaluation.
In the “20A77_mIgG1” administration group, a solvent (1% histidine buffer, pH 6.0) and “20A77_mIgG1” were intraperitoneally administered at a dose of 3, 10 or 30 mg/kg at a frequency of twice a week. […] The tumor size was measured at a frequency of twice a week until day 19 and 22 after the tumor transplantation for the “20A77_mIgG1” and “24A1_mIgG1” administration groups, respectively.

Row | Molecule | TB-positive granules in the retinal pigment epithelium ([1]; positive control, 150 mg/kg oral for 10 days) | ocular toxicity: toluidine blue-positive granules and vacuoles in photoreceptor [2] | anti-tumor effects of combined use with anti-PD-1 antibody [3] | TB-positive granules in the retinal pigment epithelium ([1]; 10 mg/kg intravenous twice a week) | tumor growth suppressing effect ([4]; 5 mg/kg intraperitoneal twice a week, until day 22, FIGS. 9 and 10) | tumor growth suppressing effect ([4]; 30 mg/kg intraperitoneal twice a week, day 19 (20A77_mIgG1) or day 22 (24A1_mIgG1))
1 | CCCCNc1ncc2c(-c3ccc(F)cc3)nn(CC3CCC(N)CC3)c2n1 (stereo not drawn) [UNC569, reference compound] | increased TB-positive granules | increased toluidine blue-positive granules and vacuoles in photoreceptor, resulting in ocular toxicity |  |  |  | 
2 | B1 |  |  | had enhanced anti-tumor effects | no increase in TB-positive granules was observed | significant tumor growth suppression | significant tumor growth suppression

Source: patent US20250326862A1, “Antibody or Fragment Thereof Binding Specifically to Mertk, and Anti-Tumor Agent” (Chiome Bioscience Inc., priority 2021, published 2025)
